Measured values: US20090202513A1, “RIBONUCLEASE AND THIAZOLIDINEDIONE COMPOUNDS AND THEIR USE IN METHODS TO TREAT CANCER” (The University of Vermont and State Agriculture College, priority 2008, published 2009)
“Also recorded” adds a separate entry of the source.

B1: ranpirnase (protein, UniProt P22069 1-104, looked up)
Protein P-30: QDWLTFQKKHITNTRDVDCDNIMSTNLFHCKDKNTFIYSRPEPVKAICKGIIASKNVLTTSEFYLSDCNVTSRPCKYKLKKSTNKFCVTCENQAPVHFVGVGSC
notes: RNase extracted from Rana pipiens, the Northern leopard frog; registered trademark name ONCONASE™

Legend:
[1] = system: NCI-H292 lung cancer cell line; assay: MTS viability of cells transfected with siFra-1 or scramble control (siC); format: cell-based, human; settings: 48 h
Protocol: Assays were performed on 96-well microtiter plates after plating of 7.7×10^4 cells/well. […] Cell viability was measured by the colorimetric methoxy-tetrazolium salt (MTS) Assay, CellTiter 96 Aqueous One Solution Cell Proliferation Assay (Promega), per the manufacturer's recommendations. MTS is a tetrazolium salt that undergoes a color change caused by its bioreduction of MTS into a water-soluble formazan. The conversion of MTS into the aqueous-soluble formazan is accomplished by dehydrogenase enzymes found in active mitochondria, with reaction occurring only in living cells. The quantity of formazan product measured by the amount of 490-nm light absorbance is directly proportional to the number of living cells in culture. Briefly, 20 μl of MTS reagent was added per well, and plates incubated at 37° C. for 2-3 h. Finally, the absorbance of each well was read at 490 nm and 650 nm. ΔOD from these two wavelengths were reported as the corrected viability. Fold changes were calculated with respect to the control as a measure of cell viability.
siFra-1 RNA interference (RNAi) duplexes were constructed from sequence information on mature mRNA extracted from the EST database available through the National Center for Biotechnology Information internet site using the open frame region from the cDNA sequence of exon 2 of the Fra-1 gene. The siRNA pool sequences targeting Fra-1 corresponded to the 107-126, 124-143, 230-249 coding regions relative to the first nucleotide of the start codon. The sequences were BLAST-searched (NCBI database) against EST libraries to ensure the specificity of the siRNA molecule. The siRNA duplexes or a scramble control were transfected into cancer lines using Lipofectamine 2000 (Invitrogen) as recommended by the manufacturer. Cells were incubated with complexes overnight, and the medium was replaced the next day. Cells were allowed to recover for 48 hours before treatments.
Cells were transfected with siFra-1 or scramble control (siC) and left to rest for 48 h before treatment. […] The PPARγ inhibitor GW9662 (2 μM) was added to observe the influence of PPARγ.

[2] = i.v. 2.5 mg/kg, twice a week for 2 weeks; previous studies, personal communication; cited from earlier work

Row | Molecule | influence of PPARγ antagonist on the synergistic effect of ranpirnase and rosiglitazone ([1]; GW9662 2 μM added to the combination) | effect of Fra-1 knock-down (siFra-1 vs siC) on efficacy / cell killing of the single drug ([1]; ranpirnase 0.1, 1 or 10 μg/mL, rosiglitazone 10 or 20 μM) | cell viability (MTS) ([1]; ranpirnase 0.1, 1 or 10 μg/mL) | apoptosis induction in vivo [2] | toxicity to the animals [2]
1 | O=C(Nc1ccccc1)c1cc([N+](=O)[O-])ccc1Cl [GW9662, reference compound] | did not significantly modify the synergistic effect of ranpirnase and rosiglitazone | – | – | – | –
2 | B1 | – | significantly increased the efficacy of ranpirnase alone at all concentrations; also recorded: increases cell killing by ranpirnase (0.1, 1, or 10 μg/mL) in a concentration-dependent manner | reduced viability in a dose-dependent manner | effective in producing apoptosis | non-toxic to the animals
